Data taken from article PMC6463701.

Target: fluorophore-labeled ubiquitin G76C (BODIPY TMR C5-maleimide)
Experiment: fluorescence polarisation; 50 nM BODIPY TMR-labelled ubiquitin G76C, E6AP construct titrated (C-lobe 0-500 μM); room temperature; 20 mM HEPES pH 7.2, 200 mM NaCl, 1 mM TCEP, 0.01% Triton X-100; single-site binding model; apparent KD
Conditions: not given

Chain of E6AP N-lobe (isolated) (Q05086 518-875): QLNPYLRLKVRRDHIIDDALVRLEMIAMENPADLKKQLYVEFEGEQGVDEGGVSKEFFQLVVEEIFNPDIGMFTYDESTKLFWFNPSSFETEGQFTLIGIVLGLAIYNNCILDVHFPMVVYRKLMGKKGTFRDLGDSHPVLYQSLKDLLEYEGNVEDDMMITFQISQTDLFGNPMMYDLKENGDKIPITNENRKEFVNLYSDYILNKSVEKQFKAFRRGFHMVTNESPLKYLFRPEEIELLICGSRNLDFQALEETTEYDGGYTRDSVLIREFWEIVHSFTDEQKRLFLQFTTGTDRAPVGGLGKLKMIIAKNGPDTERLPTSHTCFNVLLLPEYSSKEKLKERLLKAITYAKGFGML
Chain of E6AP HECT domain (residues 495-852), wild type (Q05086 518-875): as above
Chain of E6AP C-lobe (residues 741-852) (Q05086 764-875): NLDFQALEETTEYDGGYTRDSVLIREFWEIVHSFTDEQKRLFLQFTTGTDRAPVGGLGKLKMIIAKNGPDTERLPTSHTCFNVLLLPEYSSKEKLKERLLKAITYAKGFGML

Substance	Kd [µM]
E6AP C-lobe (residues 741-852) (from UniProt Q05086-2 741-852) (domain or fragment)	400
E6AP HECT domain F665D (from UniProt Q05086-2 495-852) (domain or fragment)	120

More lines, now with the values ahead:

Kd [µM]	Substance
70	E6AP N-lobe (isolated) (from UniProt Q05086-2 495-852) (domain or fragment)
110	E6AP HECT domain I564D/F583D (from UniProt Q05086-2 495-852) (domain or fragment)
83	E6AP HECT domain (residues 495-852), wild type (from UniProt Q05086-2 495-852) (domain or fragment)

Target: Cys820 (UniProt position 843, PTSHTCFNVLL)
Experiment: chemical modification (stopped-flow kinetics, UV-vis)
Conditions: 10 °C; 100 mM NaCl; 20 mM sodium acetate, 20 mM sodium phosphate, 20 mM Tris or 20 mM CAPSO (depending on pH); 1 mM EDTA; isolated C-lobe, free (no ubiquitin), reduced thiol, folded

Substance	pKa
E6AP (UBE3A) HECT domain C-lobe, Delta4 variant (Homo sapiens; del849-852)	8.7 ± 0.1
E6AP (UBE3A) HECT domain C-lobe, wild type (Homo sapiens)	8.7 ± 0.1
